Results from patent publication US20120045395.

Biological target: SMAD3 (endogenous, A549 cells) (Homo sapiens) (UniProt P84022)
Assay: cell_activity
Details: luciferase activity after TGF-beta in A549; indirect

Sequence of SMAD3 (endogenous, A549 cells) (Homo sapiens) (P84022 2-425): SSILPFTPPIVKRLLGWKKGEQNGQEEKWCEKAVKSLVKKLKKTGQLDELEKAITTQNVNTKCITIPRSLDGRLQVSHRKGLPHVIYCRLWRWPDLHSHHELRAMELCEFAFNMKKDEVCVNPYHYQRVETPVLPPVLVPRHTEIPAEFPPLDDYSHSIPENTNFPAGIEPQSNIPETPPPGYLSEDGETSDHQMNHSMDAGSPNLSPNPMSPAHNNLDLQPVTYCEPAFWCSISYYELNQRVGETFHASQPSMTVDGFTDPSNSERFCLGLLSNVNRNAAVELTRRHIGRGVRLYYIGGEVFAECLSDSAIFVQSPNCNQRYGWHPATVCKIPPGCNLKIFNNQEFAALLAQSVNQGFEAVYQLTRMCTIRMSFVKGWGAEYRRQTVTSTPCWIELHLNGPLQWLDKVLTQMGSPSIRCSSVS

let-7d promoter -1600 to +87 luciferase reporter (p-let-7d-luc)
activity (% of untreated reporter activity): < 30
